pKd: −log10 of the molar value. Read-outs that look alike come from different tables or passages of the source.
Key:
[1] = molecular target: chECL1, first extracellular loop of chNHE1, with a C-terminal HA tag (chicken); experiment: co-IP; 293T cells co-transfected with chECL1 (HA) and pCAF-gp85 plasmids for 48 h; lysates on anti-HA-agarose; blot with 4A3 and anti-HA; gp85 intensities normalised to input
[2] = molecular target: chicken sodium hydrogen exchanger isoform 1 (chNHE1), expressed on 293T cells (pCAF-chNHE1) (chicken); experiment: flow cytometry on cells; virus-cell binding: 293T cells transfected with pCAF-chNHE1 incubated with 50 MOI rescued virus 1 h on ice; stained with 4A3 anti-gp85 and FITC secondary, anti-FLAG co-staining
[3] = molecular target: chicken sodium hydrogen exchanger isoform 1 (chNHE1), expressed on 293T cells (pCAF-chNHE1) (chicken); experiment: virus-cell binding assay read by RT-qPCR; 293T cells transfected with pCAF-chNHE1, exposed to rescued virus at MOI 50 for 1 h at 4 °C, washed five times; gp85 gene RT-qPCR against human GAPDH
[4] = molecular target: chECL1, first extracellular loop of chNHE1, with a C-terminal HA tag (chicken); experiment: co-IP
[5] = molecular target: soluble chECL1 protein (chicken); experiment: SPR; Biacore 8K; chECL1 immobilised on a CM5 chip to about 100 RU; serial dilutions of gp85 flowed; 10 mM HEPES pH 7.2, 150 mM NaCl, 0.05% Tween-20; 1:1 binding model
[6] = molecular target: chicken sodium hydrogen exchanger isoform 1 (chNHE1), expressed on 293T cells (pCAF-chNHE1) (chicken); experiment: flow cytometry on cells
[7] = molecular target: chicken sodium hydrogen exchanger isoform 1 (chNHE1), expressed on 293T cells (pCAF-chNHE1) (chicken); experiment: flow cytometry on cells; protein-cell binding assay: purified gp85-Fc (0.5 mL of 200 ng/uL; 300, 200 and 50 ng/uL in Fig 2A) incubated 1 h on ice with 293T cells transfected with pCAF-chNHE1; anti-human IgG (Fc specific)-FITC, anti-FLAG co-staining
[8] = molecular target: soluble chECL1 protein (chicken); experiment: SPR; Biacore 8K; chECL1 immobilised on a CM5 chip to about 100 RU; serial dilutions of gp85 flowed; 10 mM HEPES pH 7.2, 150 mM NaCl, 0.05% Tween-20; 1:1 binding model; remark: listed apart in the source

N123I-gp85 (pCAF-N123I-gp85) (natural protein)
fold binding against HPRS103-gp85 [1]: 1.6 fold

Env of the recombinant virus rHPRS103-N123I (N123I in gp85), on virions (complex)
fold binding capacity against rHPRS103 (FACS) [2]: 1.27 fold
fold binding capacity against rHPRS103 (RT-qPCR) [3]: 7.14 fold

Env of the recombinant virus rHPRS/JL3-1 (gp85 of JL08CH3-1 on the HPRS103 backbone), on virions (complex)
fold binding capacity against rHPRS103 (FACS) [2]: 1.29 fold
fold binding capacity against rHPRS103 (RT-qPCR) [3]: 7.96 fold

JL08CH3-1-gp85 (pCAF-JL3-1-gp85) (natural protein)
fold binding capacity against HPRS103-gp85 [4]: 1.3 fold

JL08CH3-1-gp85 (CAG-JL3-1-gp85-Fc) (Fc fusion)
pKd [5]: 6.96
binding rate at 50 ng/μL [6]: 58.5%
binding rate at 200 ng/μL [6]: 85%
binding rate at 300 ng/μL [6]: 87.9%

N123I/V128F mutant gp85 (on CAG-sgp85-Fc backbone) (Fc fusion)
fold binding capacity against HPRS103-gp85 [7]: 1.3 times

N123I-gp85 (CAG-N123I-gp85-Fc) (Fc fusion)
pKd [8]: 6.87
fold binding capacity against HPRS103-gp85 [7]: 1.3 times

soluble HPRS103-gp85 (CAG-sgp85-Fc) (Fc fusion)
pKd [5]: 6.23
pKd [8]: 6.26
binding rate at 50 ng/μL [6]: 9.7%
binding rate at 200 ng/μL [6]: 59.2%
binding rate at 300 ng/μL [6]: 70%
